For experiment [1], the target named is CHIKV-IbH35 virus (West African genotype), envelope glycoproteins E2-E1 (Chikungunya virus (strain IbH35)).
For experiment [2], the target named is CHIKV-RSU1 virus (Asian genotype), envelope glycoproteins E2-E1 (Chikungunya virus (strain RSU1)).

B1: CHK-152 (mouse monoclonal antibody) (antibody, V domains shown)
VH: QVQLQQPGAALVKPGASAMMSCKASGYTFTSYWITWVKQRPGQGLEWIGDIYPGTGRTIYKEKFKTKATLTVDTSSSTAFMQLNSLTSEDSAVYYCARGYGSPYYALDYWGQGTSVTVSS
VL: DIVLTQSPASLAVSQGQRATISCKASQSVDYDGDSYVNWYQQKPGQSPKLLIYDASNLESGIPARFSGSGSGTDFTLNIHPVEEEDVATYYCQESNEDPRTFGGGTKLEIK
In experiment [1], B1 came in with an EC50 of neutralisation of CHIKV-IbH35 (FRNT on Vero cells) of 0.001 µg/mL and an EC90 of neutralisation of CHIKV-IbH35 (FRNT on Vero cells) of 0.006 µg/mL. Besides, in experiment [2], the EC50 of neutralisation of CHIKV-RSU1 (FRNT on Vero cells) was 0.003 µg/mL and the EC90 of neutralisation of CHIKV-RSU1 (FRNT on Vero cells) amounted to 0.015 µg/mL.

B2: CHK-102 (mouse monoclonal antibody) (antibody, V domains shown)
VH: QVQLQQSGAELVKPGASVKISCKTSGYAFSSFWMHWVKQRPGKGLEWIGQIYPGDGDTNYNGKFKDKATLTADKSSNTAYMQLTSLTSEDSAVYFCARNLLFDYWGQGTTLTVSS
VL: EILMTQSPAILSVSPGERVSFSCRASQSIGSNIHWYQQRTNGSPRLLIKYASESISGIPSRFSGSGSGTDFTLSINSVESEDIADYYCQQNNIWPFTFGSGTKLEIK
Consider B2, for which, in experiment [1], the EC50 of neutralisation of CHIKV-IbH35 (FRNT on Vero cells) is 0.006 µg/mL and the EC90 of neutralisation of CHIKV-IbH35 (FRNT on Vero cells) amounted to 0.104 µg/mL. In experiment [2], this molecule showed an EC50 of neutralisation of CHIKV-RSU1 (FRNT on Vero cells) of 0.005 µg/mL and an EC90 of neutralisation of CHIKV-RSU1 (FRNT on Vero cells) of 1.32 µg/mL.

B3: CHK-166 (mouse monoclonal antibody) (antibody, V domains shown)
VH: EVRLVESGGGLEQPGGSLKLSCAASGFTFSDYFMYWVRQTPEKRLEWVAYISNGGISTFYSDAVKGRFTISRDNARNTLYLQMSRLKSEDTAIYYCVRQVYGQGYFDYWGQGTTLAVSS
VL: QIVLIQSPAIMSASLGERVTMTCTASSSVSSSYLHWYQQKPGSSPKLWIYSSFSLASGVPARFSGSGSGTSYSLTISTMEAEDAATYYCHQYLRSPWTFGGGSKLEIK
In experiment [1], B3 registered an EC50 of neutralisation of CHIKV-IbH35 (FRNT on Vero cells) of 0.082 µg/mL and an EC90 of neutralisation of CHIKV-IbH35 (FRNT on Vero cells) of 2.58 µg/mL. Also, in experiment [2], the EC50 of neutralisation of CHIKV-RSU1 (FRNT on Vero cells) worked out at 0.04 µg/mL and the EC90 of neutralisation of CHIKV-RSU1 (FRNT on Vero cells) is 2.18 µg/mL.

B4: CHK-263 (mouse monoclonal antibody) (antibody, V domains shown)
VH: QVQLQQSGAELVKPGASVKISCKASGYAFSSYWMNWVKQRPGKGLEWIGQIYPGDGDTNYNGKFKGKATLTADKSSSTAYMQLSSLTSEDSAVYFCARGGLTIDYWGQGTTLTVSS
VL: DIVLTQSPATLSVTPGDSVSLSCRASQSISDNLHWYQQKSHESPGLLIKYASQSISGIPSRFSGSGSGTDFTLSINSVETEDFGMYFCQQSNSWPYTFGGGTKLEIK
As for B4, in experiment [1], the EC50 of neutralisation of CHIKV-IbH35 (FRNT on Vero cells) came to 0.002 µg/mL and the EC90 of neutralisation of CHIKV-IbH35 (FRNT on Vero cells) was 0.051 µg/mL. Besides, in experiment [2], the EC50 of neutralisation of CHIKV-RSU1 (FRNT on Vero cells) is 0.004 µg/mL and the EC90 of neutralisation of CHIKV-RSU1 (FRNT on Vero cells) turned out to be 0.048 µg/mL.

The values are drawn from article PMC3630103.
